Measurements from the RNAGym collection of RNA variant scans (doi:10.1021/acssynbio.7b00057).

B1: Pistol ribozyme (parent)
chain: GGGUCGUUGUUCCAUAAUCGCGUGGAUAUGGCACGCAAGUUUCUACCGGGCACCGUAAAUGUCCGACUGGAGCCGUUCGGGCGGCUAUAAACAGACCUCAGGCCCGAAGCGUGGCGGCACCUGCCGCCGGUGGUAAAAAAGAUCGGAAGAGCACACGUCU

Variants of: B1
Assay: aptazyme ON/OFF ratio, guanine; higher = stronger switching; co-transcriptional cleavage with and without guanine

Row | Variant | aptazyme ON/OFF ratio
1 | GGGUCGCACAAAUAUAAUCGCGUGGAUAUGGCACGCAAGUUUCUACCGGGCACCGUAAAUGUCCGACUGGAGCCGUUCGGGCGGCUAUAAACAGACCUCAGGCCCGAAGCGUGGCGGCACCUGCCGCCGGUGGUAAAAAAGAUCGGAAGAGCACACGUCU [U7C U8A G9C U10A U11A C12A C13U] | 1.2
2 | GGGUCGCACAAAAAUAAUCGCGUGGAUAUGGCACGCAAGUUUCUACCGGGCACCGUAAAUGUCCGACUGGAGCCGUUCGGGCGGCUAUAAACAGACCUCAGGCCCGAAGCGUGGCGGCACCUGCCGCCGGUGGUAAAAAAGAUCGGAAGAGCACACGUCU [U7C U8A G9C U10A U11A C12A C13A] | 1.19
3 | GGGUCGCACAAAGAUAAUCGCGUGGAUAUGGCACGCAAGUUUCUACCGGGCACCGUAAAUGUCCGACUGGAGCCGUUCGGGCGGCUAUAAACAGACCUCAGGCCCGAAGCGUGGCGGCACCUGCCGCCGGUGGUAAAAAAGAUCGGAAGAGCACACGUCU [U7C U8A G9C U10A U11A C12A C13G] | 1.12
4 | GGGUCGCACAACCAUAAUCGCGUGGAUAUGGCACGCAAGUUUCUACCGGGCACCGUAAAUGUCCGACUGGAGCCGUUCGGGCGGCUAUAAACAGACCUCAGGCCCGAAGCGUGGCGGCACCUGCCGCCGGUGGUAAAAAAGAUCGGAAGAGCACACGUCU [U7C U8A G9C U10A U11A] | 1.27
5 | GGGUCGCACAAGGAUAAUCGCGUGGAUAUGGCACGCAAGUUUCUACCGGGCACCGUAAAUGUCCGACUGGAGCCGUUCGGGCGGCUAUAAACAGACCUCAGGCCCGAAGCGUGGCGGCACCUGCCGCCGGUGGUAAAAAAGAUCGGAAGAGCACACGUCU [U7C U8A G9C U10A U11A C12G C13G] | 1.12
6 | GGGUCGCACAAGAAUAAUCGCGUGGAUAUGGCACGCAAGUUUCUACCGGGCACCGUAAAUGUCCGACUGGAGCCGUUCGGGCGGCUAUAAACAGACCUCAGGCCCGAAGCGUGGCGGCACCUGCCGCCGGUGGUAAAAAAGAUCGGAAGAGCACACGUCU [U7C U8A G9C U10A U11A C12G C13A] | 1.1
7 | GGGUCGCACAAGUAUAAUCGCGUGGAUAUGGCACGCAAGUUUCUACCGGGCACCGUAAAUGUCCGACUGGAGCCGUUCGGGCGGCUAUAAACAGACCUCAGGCCCGAAGCGUGGCGGCACCUGCCGCCGGUGGUAAAAAAGAUCGGAAGAGCACACGUCU [U7C U8A G9C U10A U11A C12G C13U] | 1.16
8 | GGGUCGCACAUCCAUAAUCGCGUGGAUAUGGCACGCAAGUUUCUACCGGGCACCGUAAAUGUCCGACUGGAGCCGUUCGGGCGGCUAUAAACAGACCUCAGGCCCGAAGCGUGGCGGCACCUGCCGCCGGUGGUAAAAAAGAUCGGAAGAGCACACGUCU [U7C U8A G9C U10A] | 1.74
9 | GGGUCGCACUUUUAUAAUCGCGUGGAUAUGGCACGCAAGUUUCUACCGGGCACCGUAAAUGUCCGACUGGAGCCGUUCGGGCGGCUAUAAACAGACCUCAGGCCCGAAGCGUGGCGGCACCUGCCGCCGGUGGUAAAAAAGAUCGGAAGAGCACACGUCU [U7C U8A G9C C12U C13U] | 1.19
10 | GGGUCGCACUUUGAUAAUCGCGUGGAUAUGGCACGCAAGUUUCUACCGGGCACCGUAAAUGUCCGACUGGAGCCGUUCGGGCGGCUAUAAACAGACCUCAGGCCCGAAGCGUGGCGGCACCUGCCGCCGGUGGUAAAAAAGAUCGGAAGAGCACACGUCU [U7C U8A G9C C12U C13G] | 1.07
11 | GGGUCGCACUUUAAUAAUCGCGUGGAUAUGGCACGCAAGUUUCUACCGGGCACCGUAAAUGUCCGACUGGAGCCGUUCGGGCGGCUAUAAACAGACCUCAGGCCCGAAGCGUGGCGGCACCUGCCGCCGGUGGUAAAAAAGAUCGGAAGAGCACACGUCU [U7C U8A G9C C12U C13A] | 1.12
12 | GGGUCGCACAAACAUAAUCGCGUGGAUAUGGCACGCAAGUUUCUACCGGGCACCGUAAAUGUCCGACUGGAGCCGUUCGGGCGGCUAUAAACAGACCUCAGGCCCGAAGCGUGGCGGCACCUGCCGCCGGUGGUAAAAAAGAUCGGAAGAGCACACGUCU [U7C U8A G9C U10A U11A C12A] | 1.16
13 | GGGUCGCACAAGCAUAAUCGCGUGGAUAUGGCACGCAAGUUUCUACCGGGCACCGUAAAUGUCCGACUGGAGCCGUUCGGGCGGCUAUAAACAGACCUCAGGCCCGAAGCGUGGCGGCACCUGCCGCCGGUGGUAAAAAAGAUCGGAAGAGCACACGUCU [U7C U8A G9C U10A U11A C12G] | 1.18
14 | GGGUCGCACAUAGAUAAUCGCGUGGAUAUGGCACGCAAGUUUCUACCGGGCACCGUAAAUGUCCGACUGGAGCCGUUCGGGCGGCUAUAAACAGACCUCAGGCCCGAAGCGUGGCGGCACCUGCCGCCGGUGGUAAAAAAGAUCGGAAGAGCACACGUCU [U7C U8A G9C U10A C12A C13G] | 1.14
15 | GGGUCGCACAUAUAUAAUCGCGUGGAUAUGGCACGCAAGUUUCUACCGGGCACCGUAAAUGUCCGACUGGAGCCGUUCGGGCGGCUAUAAACAGACCUCAGGCCCGAAGCGUGGCGGCACCUGCCGCCGGUGGUAAAAAAGAUCGGAAGAGCACACGUCU [U7C U8A G9C U10A C12A C13U] | 1.21
16 | GGGUCGCACAUAAAUAAUCGCGUGGAUAUGGCACGCAAGUUUCUACCGGGCACCGUAAAUGUCCGACUGGAGCCGUUCGGGCGGCUAUAAACAGACCUCAGGCCCGAAGCGUGGCGGCACCUGCCGCCGGUGGUAAAAAAGAUCGGAAGAGCACACGUCU [U7C U8A G9C U10A C12A C13A] | 1.26
17 | GGGUCGCACAUGGAUAAUCGCGUGGAUAUGGCACGCAAGUUUCUACCGGGCACCGUAAAUGUCCGACUGGAGCCGUUCGGGCGGCUAUAAACAGACCUCAGGCCCGAAGCGUGGCGGCACCUGCCGCCGGUGGUAAAAAAGAUCGGAAGAGCACACGUCU [U7C U8A G9C U10A C12G C13G] | 1.21
18 | GGGUCGCACAUGAAUAAUCGCGUGGAUAUGGCACGCAAGUUUCUACCGGGCACCGUAAAUGUCCGACUGGAGCCGUUCGGGCGGCUAUAAACAGACCUCAGGCCCGAAGCGUGGCGGCACCUGCCGCCGGUGGUAAAAAAGAUCGGAAGAGCACACGUCU [U7C U8A G9C U10A C12G C13A] | 1.11

Row | Variant | aptazyme ON/OFF ratio
19 | GGGUCGCACAUGUAUAAUCGCGUGGAUAUGGCACGCAAGUUUCUACCGGGCACCGUAAAUGUCCGACUGGAGCCGUUCGGGCGGCUAUAAACAGACCUCAGGCCCGAAGCGUGGCGGCACCUGCCGCCGGUGGUAAAAAAGAUCGGAAGAGCACACGUCU [U7C U8A G9C U10A C12G C13U] | 1.26
20 | GGGUCGCACUUCUAUAAUCGCGUGGAUAUGGCACGCAAGUUUCUACCGGGCACCGUAAAUGUCCGACUGGAGCCGUUCGGGCGGCUAUAAACAGACCUCAGGCCCGAAGCGUGGCGGCACCUGCCGCCGGUGGUAAAAAAGAUCGGAAGAGCACACGUCU [U7C U8A G9C C13U] | 1.05
21 | GGGUCGCACUUCAAUAAUCGCGUGGAUAUGGCACGCAAGUUUCUACCGGGCACCGUAAAUGUCCGACUGGAGCCGUUCGGGCGGCUAUAAACAGACCUCAGGCCCGAAGCGUGGCGGCACCUGCCGCCGGUGGUAAAAAAGAUCGGAAGAGCACACGUCU [U7C U8A G9C C13A] | 1.02
22 | GGGUCGCACUUCGAUAAUCGCGUGGAUAUGGCACGCAAGUUUCUACCGGGCACCGUAAAUGUCCGACUGGAGCCGUUCGGGCGGCUAUAAACAGACCUCAGGCCCGAAGCGUGGCGGCACCUGCCGCCGGUGGUAAAAAAGAUCGGAAGAGCACACGUCU [U7C U8A G9C C13G] | 1.04
23 | GGGUCGCACAUCAAUAAUCGCGUGGAUAUGGCACGCAAGUUUCUACCGGGCACCGUAAAUGUCCGACUGGAGCCGUUCGGGCGGCUAUAAACAGACCUCAGGCCCGAAGCGUGGCGGCACCUGCCGCCGGUGGUAAAAAAGAUCGGAAGAGCACACGUCU [U7C U8A G9C U10A C13A] | 1.17
24 | GGGUCGCACAUCUAUAAUCGCGUGGAUAUGGCACGCAAGUUUCUACCGGGCACCGUAAAUGUCCGACUGGAGCCGUUCGGGCGGCUAUAAACAGACCUCAGGCCCGAAGCGUGGCGGCACCUGCCGCCGGUGGUAAAAAAGAUCGGAAGAGCACACGUCU [U7C U8A G9C U10A C13U] | 1.24
25 | GGGUCGCACAUCGAUAAUCGCGUGGAUAUGGCACGCAAGUUUCUACCGGGCACCGUAAAUGUCCGACUGGAGCCGUUCGGGCGGCUAUAAACAGACCUCAGGCCCGAAGCGUGGCGGCACCUGCCGCCGGUGGUAAAAAAGAUCGGAAGAGCACACGUCU [U7C U8A G9C U10A C13G] | 1.07
26 | GGGUCGCACAUUCAUAAUCGCGUGGAUAUGGCACGCAAGUUUCUACCGGGCACCGUAAAUGUCCGACUGGAGCCGUUCGGGCGGCUAUAAACAGACCUCAGGCCCGAAGCGUGGCGGCACCUGCCGCCGGUGGUAAAAAAGAUCGGAAGAGCACACGUCU [U7C U8A G9C U10A C12U] | 1.22
27 | GGGUCGCACAUGCAUAAUCGCGUGGAUAUGGCACGCAAGUUUCUACCGGGCACCGUAAAUGUCCGACUGGAGCCGUUCGGGCGGCUAUAAACAGACCUCAGGCCCGAAGCGUGGCGGCACCUGCCGCCGGUGGUAAAAAAGAUCGGAAGAGCACACGUCU [U7C U8A G9C U10A C12G] | 1.26
28 | GGGUCGCACAUACAUAAUCGCGUGGAUAUGGCACGCAAGUUUCUACCGGGCACCGUAAAUGUCCGACUGGAGCCGUUCGGGCGGCUAUAAACAGACCUCAGGCCCGAAGCGUGGCGGCACCUGCCGCCGGUGGUAAAAAAGAUCGGAAGAGCACACGUCU [U7C U8A G9C U10A C12A] | 1.2
29 | GGGUCGCACUUGGAUAAUCGCGUGGAUAUGGCACGCAAGUUUCUACCGGGCACCGUAAAUGUCCGACUGGAGCCGUUCGGGCGGCUAUAAACAGACCUCAGGCCCGAAGCGUGGCGGCACCUGCCGCCGGUGGUAAAAAAGAUCGGAAGAGCACACGUCU [U7C U8A G9C C12G C13G] | 1.14
30 | GGGUCGCACUUGUAUAAUCGCGUGGAUAUGGCACGCAAGUUUCUACCGGGCACCGUAAAUGUCCGACUGGAGCCGUUCGGGCGGCUAUAAACAGACCUCAGGCCCGAAGCGUGGCGGCACCUGCCGCCGGUGGUAAAAAAGAUCGGAAGAGCACACGUCU [U7C U8A G9C C12G C13U] | 1.09
31 | GGGUCGCACUUGAAUAAUCGCGUGGAUAUGGCACGCAAGUUUCUACCGGGCACCGUAAAUGUCCGACUGGAGCCGUUCGGGCGGCUAUAAACAGACCUCAGGCCCGAAGCGUGGCGGCACCUGCCGCCGGUGGUAAAAAAGAUCGGAAGAGCACACGUCU [U7C U8A G9C C12G C13A] | 1.14
32 | GGGUCGCACAUUUAUAAUCGCGUGGAUAUGGCACGCAAGUUUCUACCGGGCACCGUAAAUGUCCGACUGGAGCCGUUCGGGCGGCUAUAAACAGACCUCAGGCCCGAAGCGUGGCGGCACCUGCCGCCGGUGGUAAAAAAGAUCGGAAGAGCACACGUCU [U7C U8A G9C U10A C12U C13U] | 1.06
33 | GGGUCGCACAUUAAUAAUCGCGUGGAUAUGGCACGCAAGUUUCUACCGGGCACCGUAAAUGUCCGACUGGAGCCGUUCGGGCGGCUAUAAACAGACCUCAGGCCCGAAGCGUGGCGGCACCUGCCGCCGGUGGUAAAAAAGAUCGGAAGAGCACACGUCU [U7C U8A G9C U10A C12U C13A] | 1.09
34 | GGGUCGCACAUUGAUAAUCGCGUGGAUAUGGCACGCAAGUUUCUACCGGGCACCGUAAAUGUCCGACUGGAGCCGUUCGGGCGGCUAUAAACAGACCUCAGGCCCGAAGCGUGGCGGCACCUGCCGCCGGUGGUAAAAAAGAUCGGAAGAGCACACGUCU [U7C U8A G9C U10A C12U C13G] | 1.11
35 | GGGUCGCACUUUCAUAAUCGCGUGGAUAUGGCACGCAAGUUUCUACCGGGCACCGUAAAUGUCCGACUGGAGCCGUUCGGGCGGCUAUAAACAGACCUCAGGCCCGAAGCGUGGCGGCACCUGCCGCCGGUGGUAAAAAAGAUCGGAAGAGCACACGUCU [U7C U8A G9C C12U] | 1.05
36 | GGGUCGCACUUGCAUAAUCGCGUGGAUAUGGCACGCAAGUUUCUACCGGGCACCGUAAAUGUCCGACUGGAGCCGUUCGGGCGGCUAUAAACAGACCUCAGGCCCGAAGCGUGGCGGCACCUGCCGCCGGUGGUAAAAAAGAUCGGAAGAGCACACGUCU [U7C U8A G9C C12G] | 1.13
